Results: paper PMC3406032, “Tristetraprolin Inhibits Poly(A)-Tail Synthesis in Nuclear mRNA that Contains AU-Rich Elements by Interacting with Poly(A)-Binding Protein Nuclear 1” (PLoS ONE, 2012)

T1: MBP-PABPN1-HA-(His)6 (mouse)
T1 sequence (Q8CCS6 whole entry, looked up): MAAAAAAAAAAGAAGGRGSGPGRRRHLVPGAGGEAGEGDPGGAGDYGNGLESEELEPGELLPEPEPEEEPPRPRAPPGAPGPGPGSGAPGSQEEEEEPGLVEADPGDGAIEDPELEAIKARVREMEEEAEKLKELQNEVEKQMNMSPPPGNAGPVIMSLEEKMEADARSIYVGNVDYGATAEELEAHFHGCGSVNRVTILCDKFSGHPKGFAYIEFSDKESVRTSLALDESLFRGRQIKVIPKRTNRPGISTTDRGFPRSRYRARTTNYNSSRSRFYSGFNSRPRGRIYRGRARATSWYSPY


Key:
[1] = biological target: T1, MBP-PABPN1-HA-(His)6 (mouse); assay: pull-down; MBP-PABPN1 immobilised on amylose resin and incubated with (His)6-PAP-myc and GST-TTP together; blots with anti-GST and anti-myc quantitated; oligo(A)12 added to some samples
hexahistidine-PAP-myc = biological target: T2, hexahistidine-PAP-myc (UniProt Q61183-1 1-739); assay: co-IP; 0.5 µg bacterially expressed GST-TTP construct and 0.5 µg (His)6-PAP-myc with anti-myc agarose in 10 mM Tris pH 7.0, 0.15 M NaCl, 1 mM MgCl2, 0.7 mM ZnCl2, 0.1% NP-40, 4°C overnight; blots with anti-myc and anti-GST; details: both partners purified
T2 construct: poly(A) polymerase (PAP), NM_011112, in a pQE expression vector; also called (His)6-PAP-myc; poly(A) polymerase; source: bacterially expressed (E. coli STBL2 or Rosetta(DE3)pLacI), purified; not shown: His6, N-terminal, kept; myc, C-terminal, kept
T2 sequence (Q61183 whole entry): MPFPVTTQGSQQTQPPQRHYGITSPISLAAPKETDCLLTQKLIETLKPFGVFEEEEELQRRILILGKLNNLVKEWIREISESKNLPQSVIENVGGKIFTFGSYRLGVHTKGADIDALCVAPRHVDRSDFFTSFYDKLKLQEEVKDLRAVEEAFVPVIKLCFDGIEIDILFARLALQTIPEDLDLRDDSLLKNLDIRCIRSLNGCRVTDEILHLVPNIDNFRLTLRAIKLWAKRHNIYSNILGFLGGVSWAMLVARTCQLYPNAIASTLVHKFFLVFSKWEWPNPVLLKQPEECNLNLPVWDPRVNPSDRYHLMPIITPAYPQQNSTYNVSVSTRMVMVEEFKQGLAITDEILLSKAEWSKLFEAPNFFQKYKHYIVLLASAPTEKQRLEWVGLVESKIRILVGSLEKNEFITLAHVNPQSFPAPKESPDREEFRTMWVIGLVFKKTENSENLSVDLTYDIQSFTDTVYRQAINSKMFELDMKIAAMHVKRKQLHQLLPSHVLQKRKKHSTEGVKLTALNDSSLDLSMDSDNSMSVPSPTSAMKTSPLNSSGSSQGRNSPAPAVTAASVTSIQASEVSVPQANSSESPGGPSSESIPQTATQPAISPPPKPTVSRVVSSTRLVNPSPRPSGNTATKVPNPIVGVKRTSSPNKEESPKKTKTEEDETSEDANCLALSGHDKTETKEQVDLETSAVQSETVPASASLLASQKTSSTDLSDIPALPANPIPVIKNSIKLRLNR

(His)6-PABPN1 (mouse) = (His)6-PABPN1 (mouse) (UniProt O35445)

hexahistidine-PAP-myc (from UniProt Q61183-1 1-739) (enzyme), sequence (Q61183 whole entry): as above

binding result (hexahistidine-PAP-myc) | Molecule | further results
 | hexahistidine-PAP-myc (from UniProt Q61183-1 1-739) (enzyme) | fold change of PAP pulled down with GST-TTP present, against PAP alone [1]: 4 fold
binds | GST-TTP@2-186 (domain or fragment, mouse, UniProt P22893 2-186, looked up, source: E. coli STBL2 or Rosetta(DE3)pLacI, purified (glutathione-agarose); not shown: GST, N-terminal, kept) DLSAIYESLQSMSHDLSSDHGGTESLGGLWNINSDSIPSGVTSRLTGRSTSLVEGRSCGWVPPPPGFAPLAPRPGPELSPSPTSPTATPTTSSRYKTELCRTYSESGRCRYGAKCQFAHGLGELRQANRHPKYKTELCHKFYLQGRCPYGSRCHFIHNPTEDLALPGQPHVLRQSISFSGLPSGR | 
binds | GST-TTPΔ95–158 (natural protein, mouse, UniProt P22893 2-319, looked up, also called TZF domain-deleted TTP mutant; source: E. coli STBL2 or Rosetta(DE3)pLacI, purified (glutathione-agarose); not shown: GST, N-terminal, kept) DLSAIYESLQSMSHDLSSDHGGTESLGGLWNINSDSIPSGVTSRLTGRSTSLVEGRSCGWVPPPPGFAPLAPRPGPELSPSPTSPTATPTTSSNPTEDLALPGQPHVLRQSISFSGLPSGRRSSPPPPGFSGPSLSSCSFSPSSSPPPPGDLPLSPSAFSAAPGTPVTRRDPNQACCPSCRRSTTPSTIWGPLGGLARSPSAHSLGSDPDDYASSGSSLGGSDSPVFEAGVFGPPQTPAPPRRLPIFNRISVSE | 
binds | GST-TTP@95-158 (domain or fragment, mouse, UniProt P22893 95-158, looked up, also called TZF construct; TZF domain; source: E. coli STBL2 or Rosetta(DE3)pLacI, purified (glutathione-agarose); not shown: GST, N-terminal, kept) RYKTELCRTYSESGRCRYGAKCQFAHGLGELRQANRHPKYKTELCHKFYLQGRCPYGSRCHFIH | 
binds | GST-TTP@95-158(F118N) (domain or fragment, mouse, UniProt P22893 95-158, looked up, source: E. coli STBL2 or Rosetta(DE3)pLacI, purified (glutathione-agarose); not shown: GST, N-terminal, kept) RYKTELCRTYSESGRCRYGAKCQNAHGLGELRQANRHPKYKTELCHKFYLQGRCPYGSRCHFIH | 
binds | N-terminally glutathione S-transferase-tagged wild-type TTP (natural protein, mouse, UniProt P22893 2-319, looked up, also called WT GST-TTP; GST-TTP; source: E. coli STBL2 or Rosetta(DE3)pLacI, purified (glutathione-agarose); not shown: GST, N-terminal, kept) DLSAIYESLQSMSHDLSSDHGGTESLGGLWNINSDSIPSGVTSRLTGRSTSLVEGRSCGWVPPPPGFAPLAPRPGPELSPSPTSPTATPTTSSRYKTELCRTYSESGRCRYGAKCQFAHGLGELRQANRHPKYKTELCHKFYLQGRCPYGSRCHFIHNPTEDLALPGQPHVLRQSISFSGLPSGRRSSPPPPGFSGPSLSSCSFSPSSSPPPPGDLPLSPSAFSAAPGTPVTRRDPNQACCPSCRRSTTPSTIWGPLGGLARSPSAHSLGSDPDDYASSGSSLGGSDSPVFEAGVFGPPQTPAPPRRLPIFNRISVSE | amount of TTP pulled down with (His)6-PAP-myc present, against TTP alone [1]: 80%; in vitro polyadenylation of TNFα-ARE A20 RNA by (His)6-PAP-myc with (His)6-PABPN1: reduction of the processive addition of adenosines by GST-TTP at 2 and 5 min ((His)6-PABPN1 (mouse)): 45%
binds | GST-TTP@2-319(F118N) (natural protein, mouse, UniProt P22893 2-319, looked up, source: E. coli STBL2 or Rosetta(DE3)pLacI, purified (glutathione-agarose); not shown: GST, N-terminal, kept) DLSAIYESLQSMSHDLSSDHGGTESLGGLWNINSDSIPSGVTSRLTGRSTSLVEGRSCGWVPPPPGFAPLAPRPGPELSPSPTSPTATPTTSSRYKTELCRTYSESGRCRYGAKCQNAHGLGELRQANRHPKYKTELCHKFYLQGRCPYGSRCHFIHNPTEDLALPGQPHVLRQSISFSGLPSGRRSSPPPPGFSGPSLSSCSFSPSSSPPPPGDLPLSPSAFSAAPGTPVTRRDPNQACCPSCRRSTTPSTIWGPLGGLARSPSAHSLGSDPDDYASSGSSLGGSDSPVFEAGVFGPPQTPAPPRRLPIFNRISVSE | 
